According to patent US20140154255A1 (AbbVie / Abbott, published 2014):

Experiments:
[1] = target: T1, human VEGF-A residues 27-191 of Accession #AAV38412 (human, UniProt P15692 27-191); assay: SS DLL4-VEGF DVD-Ig format; BIAcore by paragraph 262
T1 construct: range 27-191
Experimental: (§1) The binding kinetics and affinity of the antibodies for VEGF (human VEGF-A residues 27-191 of Accession #AAV38412) was determined by using a BIAcore T200 surface plasmon resonance system (BIAcore, GE Healthcare, Piscataway, N.J.). Coupling running buffer was HBS-EP+ running buffer (10 mM HEPES, 150 mM sodium chloride, 3 mM EDTA 0.05% P-20, pH 7.4); assay running buffer was HBS-EP+ with 300 mM sodium chloride and 0.1 mg/mL BSA (Sigma A7906). Polyclonal goat anti-human Fc (Thermo Scientific prod#31125) was first immobilized to the biosensor surface in 10 mM sodium acetate, pH 4.5 using standard BIAcore amine coupling reagents (N-ethyl-N′-dimethylamino-propylcarbodiimide, EDC; N-hydroxysuccinimide, NHS; and ethanolamine HCl, pH 8.5). For binding kinetics assay a series of cycles were performed, each cycle consisted of 1) mAb capture, 2) Ag or buffer injection, 3) dissociation phase and 4) regeneration. Briefly, anti-VEGF antibodies were captured on parallel surfaces at a low flow rate of 10 μL/min. Capture levels were kept low to minimize avidity due to the dimeric nature of VEGF. No capture of the antibody was made on the reference surface to serve for primary referencing and as a negative control. Subsequently, VEGF or buffer only was injected to all flow cells at a flow rate of 80 μL/min for three minutes to monitor association followed by a 20-minute flow of assay rinning buffer at a flow rate of 80 μL/min to monitor dissociation. […] At the end of each cycle the surface was regenerated with 10 mM glycine, pH 1.5 at a flow rate of 60 μL/min in pulses of 60 and 10 sec. Binding data were fit to the 1:1 Langmuir model with mass transport term included using Biacore T200 Evaluation Software to determine the binding constants.

[2] = target: T1, human VEGF-A residues 27-191 of …; assay: BIAcore SPR [continued]
Experimental: as §1

[3] = target: T1, human VEGF-A residues 27-191 of …; assay: BIAcore SPR, KD WT/KD mutant [continued]
Experimental: as §1

T1 sequence (P15692 other isoform, or with tags, fused parts or gaps limits assumed): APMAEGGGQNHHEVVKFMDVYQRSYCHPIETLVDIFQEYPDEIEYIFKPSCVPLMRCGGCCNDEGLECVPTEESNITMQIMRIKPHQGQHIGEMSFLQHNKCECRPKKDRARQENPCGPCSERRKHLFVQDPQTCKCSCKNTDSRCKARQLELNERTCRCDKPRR

B1: E 56 Q (bispecific antibody)
VH: EVQLVESGGGLVQPGGSLRLSCAASGFTFSNFPMAWVRQAPGKGLEWVATISSSDGTTYYRDSVKGRFTISRDNAKNSLYLQMNSLRAEDTAVYYCARGYYNSPFAYWGQGTLVTVSSASTKGPEVQLVESGGGLVQPGGSLRLSCAASGYTFTNYGMNWVRQAPGKGLEWVGWINTYTGQPTYAADFKRRFTFSLDTSKSTAYLQMNSLRAEDTAVYYCAKYPHYYGSSHWYFDVWGQGTLVTVSS
VL: DIQMTQSPSSLSASVGDRVTITCRASEDIYSNLAWYQQKPGKAPKLLIYDTNNLADGVPSRFSGSGSGTDFTLTISSLQPEDFATYYCQQYNNYPPTFGQGTKLEIKRTVAAPDIQMTQSPSSLSASVGDRVTITCSASQDISNYLNWYQQKPGKAPKVLIYFTSSLHSGVPSRFSGSGSGTDFTLTISSLQPEDFATYYCQQYSTVPWTFGQGTKVEIK
notes: also called SS DLL4-VEGF DVD-Ig variant E56Q
- Affinity relative to WT [1]: 0.7 fold

B2: E 56 W (bispecific antibody)
VH: EVQLVESGGGLVQPGGSLRLSCAASGFTFSNFPMAWVRQAPGKGLEWVATISSSDGTTYYRDSVKGRFTISRDNAKNSLYLQMNSLRAEDTAVYYCARGYYNSPFAYWGQGTLVTVSSASTKGPEVQLVESGGGLVQPGGSLRLSCAASGYTFTNYGMNWVRQAPGKGLEWVGWINTYTGWPTYAADFKRRFTFSLDTSKSTAYLQMNSLRAEDTAVYYCAKYPHYYGSSHWYFDVWGQGTLVTVSS
VL: DIQMTQSPSSLSASVGDRVTITCRASEDIYSNLAWYQQKPGKAPKLLIYDTNNLADGVPSRFSGSGSGTDFTLTISSLQPEDFATYYCQQYNNYPPTFGQGTKLEIKRTVAAPDIQMTQSPSSLSASVGDRVTITCSASQDISNYLNWYQQKPGKAPKVLIYFTSSLHSGVPSRFSGSGSGTDFTLTISSLQPEDFATYYCQQYSTVPWTFGQGTKVEIK
notes: also called SS DLL4-VEGF DVD-Ig variant E56W
- Affinity relative to WT [1]: 0.6 fold

B3: E 56 T (bispecific antibody)
VH: EVQLVESGGGLVQPGGSLRLSCAASGFTFSNFPMAWVRQAPGKGLEWVATISSSDGTTYYRDSVKGRFTISRDNAKNSLYLQMNSLRAEDTAVYYCARGYYNSPFAYWGQGTLVTVSSASTKGPEVQLVESGGGLVQPGGSLRLSCAASGYTFTNYGMNWVRQAPGKGLEWVGWINTYTGTPTYAADFKRRFTFSLDTSKSTAYLQMNSLRAEDTAVYYCAKYPHYYGSSHWYFDVWGQGTLVTVSS
VL: DIQMTQSPSSLSASVGDRVTITCRASEDIYSNLAWYQQKPGKAPKLLIYDTNNLADGVPSRFSGSGSGTDFTLTISSLQPEDFATYYCQQYNNYPPTFGQGTKLEIKRTVAAPDIQMTQSPSSLSASVGDRVTITCSASQDISNYLNWYQQKPGKAPKVLIYFTSSLHSGVPSRFSGSGSGTDFTLTISSLQPEDFATYYCQQYSTVPWTFGQGTKVEIK
notes: also called SS DLL4-VEGF DVD-Ig variant E56T
- Affinity relative to WT [1]: 0.8 fold

B4: G 55 Q (bispecific antibody)
VH: EVQLVESGGGLVQPGGSLRLSCAASGFTFSNFPMAWVRQAPGKGLEWVATISSSDGTTYYRDSVKGRFTISRDNAKNSLYLQMNSLRAEDTAVYYCARGYYNSPFAYWGQGTLVTVSSASTKGPEVQLVESGGGLVQPGGSLRLSCAASGYTFTNYGMNWVRQAPGKGLEWVGWINTYTQEPTYAADFKRRFTFSLDTSKSTAYLQMNSLRAEDTAVYYCAKYPHYYGSSHWYFDVWGQGTLVTVSS
VL: DIQMTQSPSSLSASVGDRVTITCRASEDIYSNLAWYQQKPGKAPKLLIYDTNNLADGVPSRFSGSGSGTDFTLTISSLQPEDFATYYCQQYNNYPPTFGQGTKLEIKRTVAAPDIQMTQSPSSLSASVGDRVTITCSASQDISNYLNWYQQKPGKAPKVLIYFTSSLHSGVPSRFSGSGSGTDFTLTISSLQPEDFATYYCQQYSTVPWTFGQGTKVEIK
notes: also called SS DLL4-VEGF DVD-Ig variant G55Q
- Affinity relative to WT [1]: 0.9 fold

B5: N 31 G (bispecific antibody)
VH: EVQLVESGGGLVQPGGSLRLSCAASGFTFSNFPMAWVRQAPGKGLEWVATISSSDGTTYYRDSVKGRFTISRDNAKNSLYLQMNSLRAEDTAVYYCARGYYNSPFAYWGQGTLVTVSSASTKGPEVQLVESGGGLVQPGGSLRLSCAASGYTFTGYGMNWVRQAPGKGLEWVGWINTYTGEPTYAADFKRRFTFSLDTSKSTAYLQMNSLRAEDTAVYYCAKYPHYYGSSHWYFDVWGQGTLVTVSS
VL: DIQMTQSPSSLSASVGDRVTITCRASEDIYSNLAWYQQKPGKAPKLLIYDTNNLADGVPSRFSGSGSGTDFTLTISSLQPEDFATYYCQQYNNYPPTFGQGTKLEIKRTVAAPDIQMTQSPSSLSASVGDRVTITCSASQDISNYLNWYQQKPGKAPKVLIYFTSSLHSGVPSRFSGSGSGTDFTLTISSLQPEDFATYYCQQYSTVPWTFGQGTKVEIK
notes: also called SS DLL4-VEGF DVD-Ig variant N31G
- Affinity relative to WT [1]: 1.1 fold

B6: T 30 F (bispecific antibody)
VH: EVQLVESGGGLVQPGGSLRLSCAASGFTFSNFPMAWVRQAPGKGLEWVATISSSDGTTYYRDSVKGRFTISRDNAKNSLYLQMNSLRAEDTAVYYCARGYYNSPFAYWGQGTLVTVSSASTKGPEVQLVESGGGLVQPGGSLRLSCAASGYTFFNYGMNWVRQAPGKGLEWVGWINTYTGEPTYAADFKRRFTFSLDTSKSTAYLQMNSLRAEDTAVYYCAKYPHYYGSSHWYFDVWGQGTLVTVSS
VL: DIQMTQSPSSLSASVGDRVTITCRASEDIYSNLAWYQQKPGKAPKLLIYDTNNLADGVPSRFSGSGSGTDFTLTISSLQPEDFATYYCQQYNNYPPTFGQGTKLEIKRTVAAPDIQMTQSPSSLSASVGDRVTITCSASQDISNYLNWYQQKPGKAPKVLIYFTSSLHSGVPSRFSGSGSGTDFTLTISSLQPEDFATYYCQQYSTVPWTFGQGTKVEIK
notes: also called SS DLL4-VEGF DVD-Ig variant T30F
- Affinity relative to WT [1]: 0.4 fold

B7: H97 A (SS DLL4-VEGF DVD-Ig) (bispecific antibody)
VH: EVQLVESGGGLVQPGGSLRLSCAASGFTFSNFPMAWVRQAPGKGLEWVATISSSDGTTYYRDSVKGRFTISRDNAKNSLYLQMNSLRAEDTAVYYCARGYYNSPFAYWGQGTLVTVSSASTKGPEVQLVESGGGLVQPGGSLRLSCAASGYTFTNYGMNWVRQAPGKGLEWVGWINTYTGEPTYAADFKRRFTFSLDTSKSTAYLQMNSLRAEDTAVYYCAKYPAYYGSSHWYFDVWGQGTLVTVSS
VL: DIQMTQSPSSLSASVGDRVTITCRASEDIYSNLAWYQQKPGKAPKLLIYDTNNLADGVPSRFSGSGSGTDFTLTISSLQPEDFATYYCQQYNNYPPTFGQGTKLEIKRTVAAPDIQMTQSPSSLSASVGDRVTITCSASQDISNYLNWYQQKPGKAPKVLIYFTSSLHSGVPSRFSGSGSGTDFTLTISSLQPEDFATYYCQQYSTVPWTFGQGTKVEIK
notes: also called SS DLL4-VEGF DVD-Ig variant H97A
- Kd [2]: 5.03 nM
- koff [2]: 0.000269 s⁻¹
- kon [2]: 53600 M⁻¹ s⁻¹
- affinity improvement [3]: 1 fold

B8: T 28 D (bispecific antibody)
VH: EVQLVESGGGLVQPGGSLRLSCAASGFTFSNFPMAWVRQAPGKGLEWVATISSSDGTTYYRDSVKGRFTISRDNAKNSLYLQMNSLRAEDTAVYYCARGYYNSPFAYWGQGTLVTVSSASTKGPEVQLVESGGGLVQPGGSLRLSCAASGYDFTNYGMNWVRQAPGKGLEWVGWINTYTGEPTYAADFKRRFTFSLDTSKSTAYLQMNSLRAEDTAVYYCAKYPHYYGSSHWYFDVWGQGTLVTVSS
VL: DIQMTQSPSSLSASVGDRVTITCRASEDIYSNLAWYQQKPGKAPKLLIYDTNNLADGVPSRFSGSGSGTDFTLTISSLQPEDFATYYCQQYNNYPPTFGQGTKLEIKRTVAAPDIQMTQSPSSLSASVGDRVTITCSASQDISNYLNWYQQKPGKAPKVLIYFTSSLHSGVPSRFSGSGSGTDFTLTISSLQPEDFATYYCQQYSTVPWTFGQGTKVEIK
notes: also called SS DLL4-VEGF DVD-Ig variant T28D
- Affinity relative to WT [1]: 0.8 fold

B9: E 56 R (bispecific antibody)
VH: EVQLVESGGGLVQPGGSLRLSCAASGFTFSNFPMAWVRQAPGKGLEWVATISSSDGTTYYRDSVKGRFTISRDNAKNSLYLQMNSLRAEDTAVYYCARGYYNSPFAYWGQGTLVTVSSASTKGPEVQLVESGGGLVQPGGSLRLSCAASGYTFTNYGMNWVRQAPGKGLEWVGWINTYTGRPTYAADFKRRFTFSLDTSKSTAYLQMNSLRAEDTAVYYCAKYPHYYGSSHWYFDVWGQGTLVTVSS
VL: DIQMTQSPSSLSASVGDRVTITCRASEDIYSNLAWYQQKPGKAPKLLIYDTNNLADGVPSRFSGSGSGTDFTLTISSLQPEDFATYYCQQYNNYPPTFGQGTKLEIKRTVAAPDIQMTQSPSSLSASVGDRVTITCSASQDISNYLNWYQQKPGKAPKVLIYFTSSLHSGVPSRFSGSGSGTDFTLTISSLQPEDFATYYCQQYSTVPWTFGQGTKVEIK
notes: also called SS DLL4-VEGF DVD-Ig variant E56R
- Affinity relative to WT [1]: 0.9 fold

B10: T 28 W (bispecific antibody)
VH: EVQLVESGGGLVQPGGSLRLSCAASGFTFSNFPMAWVRQAPGKGLEWVATISSSDGTTYYRDSVKGRFTISRDNAKNSLYLQMNSLRAEDTAVYYCARGYYNSPFAYWGQGTLVTVSSASTKGPEVQLVESGGGLVQPGGSLRLSCAASGYWFTNYGMNWVRQAPGKGLEWVGWINTYTGEPTYAADFKRRFTFSLDTSKSTAYLQMNSLRAEDTAVYYCAKYPHYYGSSHWYFDVWGQGTLVTVSS
VL: DIQMTQSPSSLSASVGDRVTITCRASEDIYSNLAWYQQKPGKAPKLLIYDTNNLADGVPSRFSGSGSGTDFTLTISSLQPEDFATYYCQQYNNYPPTFGQGTKLEIKRTVAAPDIQMTQSPSSLSASVGDRVTITCSASQDISNYLNWYQQKPGKAPKVLIYFTSSLHSGVPSRFSGSGSGTDFTLTISSLQPEDFATYYCQQYSTVPWTFGQGTKVEIK
notes: also called SS DLL4-VEGF DVD-Ig variant T28W
- Affinity relative to WT [1]: 0.6 fold
